Results: the supplement of paper PMC11246515
± gives the standard deviation of the averaged measurements.

Test: total protein half-life in vivo (active degradation + dilution); higher = more stable protein
[1] = E. coli NCM3722 delta-clpP delta-lon delta-hslV, growth: N-lim chemostat, doubling time 6 h
[2] = E. coli NCM3722 delta-clpP, growth: N-lim chemostat, doubling time 6 h
[3] = E. coli NCM3722 delta-hslV, growth: N-lim chemostat, doubling time 6 h
[4] = E. coli NCM3722 delta-lon, growth: N-lim chemostat, doubling time 6 h
[5] = E. coli NCM3722 delta-smpB, growth: N-lim chemostat, doubling time 6 h
[6] = wild type E. coli NCM3722, growth: C-lim chemostat, doubling time 12 h
[7] = wild type E. coli NCM3722, growth: N-lim chemostat, doubling time 6 h
[8] = wild type E. coli NCM3722, growth: N-lim chemostat, doubling time 12 h
[9] = wild type E. coli NCM3722, growth: P-lim chemostat, doubling time 6 h
[10] = wild type E. coli NCM3722, growth: P-lim chemostat, doubling time 12 h
[11] = wild type E. coli NCM3722, growth: C-lim chemostat, doubling time 3 h
[12] = wild type E. coli NCM3722, growth: C-lim chemostat, doubling time 6 h

Sequence	total protein half-life in vivo [1] [h]	total protein half-life in vivo [2] [h]	total protein half-life in vivo [3] [h]	total protein half-life in vivo [4] [h]	total protein half-life in vivo [5] [h]	total protein half-life in vivo [6] [h]	total protein half-life in vivo [7] [h]	total protein half-life in vivo [8] [h]	total protein half-life in vivo [9] [h]	total protein half-life in vivo [10] [h]	total protein half-life in vivo [11] [h]	total protein half-life in vivo [12] [h]
MRIGIPRERLTNETRVAATPKTVEQLLKLGFTVAVESGAGQLASFDDKAFVQAGAEIVEGNSVWQSEIILKVNAPLDDEIALLNPGTTLVSFIWPAQNPELMQKLAERNVTVMAMDSVPRISRAQSLDALSSMANIAGYRAIVEAAHEFGRFFTGQITAAGKVPPAKVMVIGAGVAGLAAIGAANSLGAIVRAFDTRPEVKEQVQSMGAEFLELDFKEEAGSGDGYAKVMSDAFIKAEMELFAAQAKEVDIIVTTALIPGKPAPKLITREMVDSMKAGSVIVDLAAQNGGNCEYTVPGEIFTTENGVKVIGYTDLPGRLPTQSSQLYGTNLVNLLKLLCKEKDGNITVDFDDVVIRGVTVIRAGEITWPAPPIQVSAQPQAAQKAAPEVKTEEKCTCSPWRKYALMALAIILFGWMASVAPKEFLGHFTVFALACVVGYYVVWNVSHALHTPLMSVTNAISGIIVVGALLQIGQGGWVSFLSFIAVLIASINIFGGFTVTQRMLKMFRKN	6.21 ± 0.11	6.81 ± 0.17	6.66 ± 0.067	6.58 ± 0.37	6.01 ± 0.82	14.5 ± 0.55	6.23 ± 0.47	12.6 ± 0.42	6.73 ± 0.34	11.6 ± 1.5		
MIVRPQQHWLRRIFVWHGSVLSKISSRLLLNFLFSIAVIFMLPWYTHLGIKFTLAPFSILGVAIAIFLGFRNNAGYARYVEARKLWGQLMIASRSLLREVKTTLPDSASVREFARLQIAFAHCLRMTLRKQPQAEVLAHYLKTEDLQRVLASNSPANRILLIMGEWLAVQRRNGQLSDILFISLNDRLNDISAVLAGCERIAYTPIPFAYTLILHRTVYLFCIMLPFALVVDLHYMTPFISVLISYTFISLDCLAEELEDPFGTENNDLPLDAICNAIEIDLLQMNDEAEIPAKILPDRHYQLT	6.05	5.43	5.52				3.6	8.65	5.86 ± 0.6	11.5 ± 0.23		
MSEQFLYFLQQMFNGVTLGSTYALIAIGYTMVYGIIGMINFAHGEVYMIGSYVSFMIIAALMMMGIDTGWLLVAAGFVGAIVIASAYGWSIERVAYRPVRNSKRLIALISAIGMSIFLQNYVSLTEGSRDVALPSLFNGQWVVGHSENFSASITTMQAVIWIVTFLAMLALTIFIRYSRMGRACRACAEDLKMASLLGINTDRVIALTFVIGAAMAAVAGVLLGQFYGVINPYIGFMAGMKAFTAAVLGGIGSIPGAMIGGLILGIAEALSSAYLSTEYKDVVSFALLILVLLVMPTGILGRPEVEKV [P0AEX7]	6.2		> 8		6.44 ± 0.19		> 8			> 16	2.75 ± 0.53	
MQSLTTALENLLRHLSQEIPATPGIRVIDIPFPLKDAFDALSWLASQQTYPQFYWQQRNGDEEAVVLGAITRFTSLDQAQRFLRQHPEHADLRIWGLNAFDPSQGNLLLPRLEWRRCGGKATLRLTLFSESSLQHDAIQAKEFIATLVSIKPLPGLHLTTTREQHWPDKTGWTQLIELATKTIAEGELDKVVLARATDLHFASPVNAAAMMAASRRLNLNCYHFYMAFDGENAFLGSSPERLWRRRDKALRTEALAGTVANNPDDKQAQQLGEWLMADDKNQRENMLVVEDICQRLQADTQTLDVLPPQVLRLRKVQHLRRCIWTSLNKADDVICLHQLQPTAAVAGLPRDLARQFIARHEPFTREWYAGSAGYLSLQQSEFCVSLRSAKISGNVVRLYAGAGIVRGSDPEQEWQEIDNKAAGLRTLLQME	4.68 ± 0.47	> 8	3.92 ± 0.49	4.47 ± 0.15	3.94 ± 0.32	10.2 ± 0.62	3.92 ± 0.21	6.68 ± 0.27	5.06 ± 0.77	11.1 ± 0.5	2.96 ± 0.1	4.82 ± 0.16
MSTRLTTLSHTSEGHRVSVHYGYDDKGRLTGERQTVENPETGELLWHHETGHAYNEQGLANRVTPDSLPPVEWLTYGSGYLAGMKLGGTPLLEFTRDRLHRETVRSFGSMAGSNAAYKLTSTYTPAGQLQSQHLNSLVYDRDYGWNDNGDLVRISGPRQTREYGYSATGRLESVRTLAPDLDIRIPYATDPAGNRLPDPELHPDSTLTVWPDNRIAEDAHYVYRHDEYGRLTEKTDRIPAGVIRTDDERTHHYHYDSQHRLVFYTRIQHGEPLVESRYLYDPLGRRMAKRVWRRERDLTGWMSLSRKPEVTWYGWDGDRLTTVQTDTTRIQTVYEPGSFTPLIRVETENGEREKAQRRSLAETLQQEGSENGHGVVFPAELVRLLDRLEEEIRADRVSSESRAWLAQCGLTVEQLARQVEPEYTPARKVHFYHCDHRGLPLALISEDGNTAWRGEYDEWGNQLNEENPHHLHQPYRLPGQQHDEESGLYYNRHRHYDPLQGRYITPDPIGLRGGWNMYQYPLNPIQVIDPMGLDAIENMTSGGLIYAVSGVPGLIAANSITNSAYQFGYDMDAIVGGAHNGAADAMRHCYLMCRMTKTFGSTIADVIGKNHEAAGDRQGQPAKERIMDLKNNTVGIACGDFSAKCSDACIEKYNTGQLFGLDGIKADNPIKAKQGSSDASNY	3.27											
MPFRSNNPITRDELLSRFFPQYHPVTTFNSGLSGGSFLIEHQGQRFVVRQPHDPDAPQSAFLRQYRALSQLPACIAPKPHLYLRDWMVVDYLPGAVKTYLPDTNELAGLLYYLHQQPRFGWRITLLPLLELYWQQSDPARRTVGWLRMLKRLRKAREPRPLRLSPLHMDVHAGNLVHSASGLKLIDWEYAGDGDIALELAAVWVENTEQHRQLVNDYATRAKIYPAQLWRQVRRWFPWLLMLKAGWFEYRWRQTGDQQFIRLADDTWRQLLIKQ	6.3 ± 0.21	6.27 ± 0.31	6.3	6.04 ± 0.35	5.66	> 16	6.24 ± 0.49	13.6	5.96	11.1		7.13
MISRVTEALSKVKGSMGSHERHALPGVIGDDLLRFGKLPLCLFICIILTAVTVVTTAHHTRLLTAQREQLVLERDALDIEWRNLILEENALGDHSRVERIATEKLQMQHVDPSQENIVVQK [P0AEN4]	4.86 ± 0.82	3.72 ± 0.074	2.91	4.25 ± 0.28	3.44 ± 0.1	7.71 ± 1.4	4.3 ± 0.56	5.19 ± 0.39	4.04 ± 0.16	5.75 ± 1.9	2.6 ± 0.074	3.85
MTAFSTLNVLPPAQLTNLNELGYLTMTPVQAAALPAILAGKDVRVQAKTGSGKTAAFGLGLLQQIDASLFQTQALVLCPTRELADQVAGELRRLARFLPNTKILTLCGGQPFGMQRDSLQHAPHIIVATPGRLLDHLQKGTVSLDALNTLVMDEADRMLDMGFSDAIDDVIRFAPASRQTLLFSATWPEAIAAISGRVQRDPLAIEIDSTDALPPIEQQFYETSSKGKIPLLQRLLSLHQPSSCVVFCNTKKDCQAVCDALNEVGQSALSLHGDLEQRDRDQTLVRFANGSARVLVATDVAARGLDIKSLELVVNFELAWDPEVHVHRIGRTARAGNSGLAISFCAPEEAQRANIISDMLQIKLNWQTPPANSSIATLEAEMATLCIDGGKKAKMRPGDVLGALTGDIGLDGADIGKIAVHPAHVYVAVRQAVAHKAWKQLQGGKIKGKTCRVRLLK	5.81 ± 1.4	2.58				8.81 ± 4.4			2.59			3.78
